Measured values taken from patent US20220387557A1 (OXFORD UNIVERSITY INNOVATION, published 2022).

T1: Fc tagged human TNFR1 (Sino Biological) (human, UniProt P19438 22-211, limits assumed)
T1 construct: Bought reagent; also called hTNFR1; hTNFR1-Fc; not shown: Fc tag of the bought protein
T1 sequence (looked up): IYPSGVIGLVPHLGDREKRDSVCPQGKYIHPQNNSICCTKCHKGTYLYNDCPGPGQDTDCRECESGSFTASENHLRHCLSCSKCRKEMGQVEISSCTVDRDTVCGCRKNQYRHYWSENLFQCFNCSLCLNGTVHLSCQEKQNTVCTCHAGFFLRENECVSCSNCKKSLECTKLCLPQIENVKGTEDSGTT

T2: Fc tagged mouse TNFR1 (Sino Biological) (mouse, UniProt P25118 22-212, limits assumed)
T2 construct: Bought reagent; also called mTNFR1; mTNFR1-Fc; not shown: Fc tag of the bought protein
T2 sequence (looked up): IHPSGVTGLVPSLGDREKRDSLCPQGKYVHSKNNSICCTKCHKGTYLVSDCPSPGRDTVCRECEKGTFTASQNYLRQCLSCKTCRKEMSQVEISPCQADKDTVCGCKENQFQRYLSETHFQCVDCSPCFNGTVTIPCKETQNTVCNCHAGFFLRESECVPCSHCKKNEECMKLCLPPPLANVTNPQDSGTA

T3: Fc tagged human TNFR2 (Sino Biological) (human, UniProt P20333 23-257)
T3 construct: Bought reagent; also called hTNFR2; hTNFR2-Fc; not shown: Fc tag of the bought protein
T3 sequence (looked up): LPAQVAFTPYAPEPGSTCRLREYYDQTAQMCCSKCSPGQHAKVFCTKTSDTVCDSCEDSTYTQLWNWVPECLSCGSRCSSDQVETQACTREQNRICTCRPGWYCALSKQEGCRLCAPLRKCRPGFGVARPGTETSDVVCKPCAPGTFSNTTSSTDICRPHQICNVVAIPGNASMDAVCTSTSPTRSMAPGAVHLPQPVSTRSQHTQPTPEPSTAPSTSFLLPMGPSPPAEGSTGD

T4: Fc tagged mouse TNFR2 (Sino Biological) (mouse, UniProt P25119 23-258)
T4 construct: Bought reagent; also called mTNFR2; mTNF2; not shown: Fc tag of the bought protein
T4 sequence (looked up): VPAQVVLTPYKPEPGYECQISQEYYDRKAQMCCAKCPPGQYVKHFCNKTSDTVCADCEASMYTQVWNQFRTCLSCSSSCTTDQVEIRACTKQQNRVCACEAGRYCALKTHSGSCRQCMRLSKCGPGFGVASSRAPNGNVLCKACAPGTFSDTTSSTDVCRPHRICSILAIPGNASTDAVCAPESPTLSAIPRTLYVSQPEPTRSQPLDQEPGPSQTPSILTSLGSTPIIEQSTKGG


Key:
[1] = target: T1, Fc tagged human TNFR1 (Sino Biological); experiment: SPR, Biacore T200 single cycle kinetics, receptor-Fc captured on Protein A chip, TNF 1.67-15 nM
Procedure: (§1) Single cycle kinetic analysis was performed using a Biacore T200 (serial no. 1909913) running Biacore T200 Evaluation Software V2.0.1 (Uppsala, Sweden). All experiments were run at 25° C. with HBS-P+ running buffer (pH 7.4) (GE Healthcare, Little Chalfont, UK).
(§2) Due to the limit in the number of available flow cells for analysis (three Fc per analysis, Fc2, Fc3 and Fc4, with Fc1 always being used as blank reference for non-specific subtraction), receptor binding was assessed in two separate overlapping runs using either: hTNFR1 (Fc2), hTNFR2 (Fc3) and mTNFR1 (Fc4), or; hTNFR1 (Fc2), […] and mTNFR2 (Fc4). Receptors were diluted in running buffer to a concentration of ˜4 μg/mL and at the start of each cycle loaded onto Fc2, Fc3 and Fc4 of a Protein A chip (GE Healthcare, Little Chalfont, UK) at a flow rate of 10 μL/min to give an RU of 40-100. The surface was then allowed to stabilise. Single cycle kinetic data was obtained at a flow rate of 45 μL/min. […] The association phase for the three injections of increasing concentrations of TNF was monitored for 240 seconds and a single dissociation phase was measured for 2700 seconds following the last injection of TNF. Regeneration of the Protein A surface was conducted using 10 mM glycine-HCl pH 1.5. The signal from the reference channel Fc1 (no receptor) was subtracted from that of Fc2, Fc3 and Fc4 to correct for differences in non-specific binding to a reference surface.

[2] = target: T2, Fc tagged mouse TNFR1 (Sino Biological); experiment: as above
Procedure: as §1, §2

[3] = target: T1, Fc tagged human TNFR1 (Sino Biological); experiment: SPR, Biacore T200 multi cycle kinetics, receptor-Fc captured on Protein A chip, TNF 1.25-40 nM, 1:1 model
Procedure: (§3) Multi cycle kinetics analysis of binding to hTNFR1, hTNFR2, mTNFR1 and mTNFR2 was performed on the 10 lead variants using a Biacore T200 (serial no. 1909913) instrument running Biacore T200 Evaluation Software V3.0.1 (Uppsala, Sweden) to characterise further the binding to these receptors.
(§4) As with the single cycle kinetics, receptor binding was assessed in two separate experiments. In the first set of experiments binding to hTNFR1 (Fc2), hTNFR2 (Fc3) and mTNFR1 (Fc4) was assessed. In the second set of experiments the extent of mTNF2 (Fc4) binding was assessed using hTNFR1 (Fc2) and hTNFR2 (Fc3) as controls. All receptors were diluted in running buffer to a concentration of ˜4 μg/mL and at the start of each cycle loaded onto Fc2, Fc3 and Fc4 of a Protein A CM5 chip and captured at a flow rate of 10 μL/min to give an RU of ˜40-100. The surface was then allowed to stabilise. All kinetic data was obtained using a flow rate of 75 μl/min to minimise any potential mass transfer effects. […] The association phase of TNF was monitored for 280 seconds and the dissociation phase was measured for 2100 seconds. […] Regeneration of the Protein A surface was conducted using two injections of 10 mM glycine-HCL pH 1.5 at the end of each cycle. The signal from the reference channel Fc1 was subtracted from that of Fc2, Fc3 and Fc4 to correct for differences in non-specific binding to a reference surface, and a global Rmax parameter was used in the 1-to-1 binding model.

[4] = target: T2, Fc tagged mouse TNFR1 (Sino Biological); experiment: as above
Procedure: as §3, §4

[5] = target: T3, Fc tagged human TNFR2 (Sino Biological); experiment: SPR, Biacore T200 multi cycle kinetics, 1:1 model; ** = a residual amount of binding is observed but 1 to 1 model is a poor fit
Procedure: as §3
as §4, with “The signal from the reference channel Fc1 was subtracted from that of Fc2, Fc3 and Fc4 to correct for differences in non-specific binding to a reference surface, and a global Rmax parameter was used in the 1-to-1 binding model.” left out

[6] = target: T4, Fc tagged mouse TNFR2 (Sino Biological); experiment: SPR (Biacore T200) single cycle kinetics, Fc-tagged receptor captured on Protein A chip, TNF protein as analyte at 1.67-15 nM
Procedure: as §1, §2
Controls were used to ensure the integrity of the receptors during the Biacore run.

[7] = target: T3, Fc tagged human TNFR2 (Sino Biological); experiment: phage binding test on Fc tagged receptor
[8] = target: T4, Fc tagged mouse TNFR2 (Sino Biological); experiment: phage binding test on Fc tagged receptor

Binder	Kd [1]	Kd [2]	Kd [3]	Kd [4]	Kd [5]	binding result [6]	binding result [7]	binding result [8]
TNF variant C9 (ligand, Human TNF variant from Library 2, AVTYQT at positions 84-89; not shown: C-terminal FLAG tag and His6 tag from vector pANT65) VRSSSRTPSDKPVAHVVANPQAEGQLQWINGRANALLANGVELRDNQLVVPSEGLYLIYSQVLFKGQGCPSTHVLLTHTISRIAVTYQTKVNLLSAIKSPCQRETPEGAEAKPWYEPIYLGGVFQLEKGDRLSAEINRPDYLDDADSGQVYFGIIAL	0.0248 nM	0.607 nM	0.0717 nM	1.13 nM	289 nM	no binding (tested: 15 nM)	–	–
phage displaying mTNF (gene III fusion, pANT65) (other, mouse, UniProt P06804 80-235, looked up, also called mTNF (phage); not shown: FLAG tag, His6 tag and phage gene III protein of pANT65) LRSSSQNSSDKPVAHVVANHQVEEQLEWLSQRANALLANGMDLKDNQLVVPADGLYLVYSQVLFKGQGCPDYVLLTHTVSRFAISYQEKVNLLSAVKSPCPKDTPEGAELKPWYEPIYLGGVFQLEKGDQLSAEVNLPKYLDFAESGQVYFGVIAL	–	–	–	–	–	–	binds	binds
